# Measurements published in patent US20230021388A1 (VELOSBIO, published 2023).
# Where a chain is given by its changes, count along the chain named. In names and notes the source's numbering stands.
# B1: Ab1 Fab variant H1 A30I (Fab, V domains shown)
# VH: QVQLQESGPGLVKPSQTLSLTCTVSGYIFTAYNIHWVRQAPGQGLEWMGSFDPYDGGSSYNQKFKDRLTISKDTSKNQVVLTMTNMDPVDTATYYCARGWYYFDYWGHGTLVTVSS
# VL: DIVMTQTPLSLPVTPGEPASISCRASKSISKYLAWYQQKPGQAPRLLIYSGSTLQSGIPPRFSGSGYGTDFTLTINNIESEDAAYYFCQQHDESPYTFGEGTKVEIK
# notes: Fab
# B2: Ab1 Fab variant H2 K73C (Fab, V domains shown)
# VH: B1 VH with I28A, K63C
# VL: B1 VL
# notes: Fab
# B3: Ab1 Fab variant H2 S68Q (Fab, V domains shown)
# VH: B1 VH with I28A, S58Q
# VL: B1 VL
# notes: Fab
# B4: Ab1 Fab variant H1 F31W (Fab, V domains shown)
# VH: B1 VH with I28A, F29W
# VL: B1 VL
# notes: Fab
# B5: Ab1 Fab variant H1 Y29S (Fab, V domains shown)
# VH: B1 VH with Y27S, I28A
# VL: B1 VL
# notes: Fab
# B6: Ab1 Fab variant H2 K75G (Fab, V domains shown)
# VH: B1 VH with I28A, K65G
# VL: B1 VL
# notes: Fab
# B7: Ab1 Fab variant H2 S68E (Fab, V domains shown)
# VH: B1 VH with I28A, S58E
# VL: B1 VL
# notes: Fab
# B8: Ab1 Fab variant H1 G27T (Fab, V domains shown)
# VH: B1 VH with G26T, I28A
# VL: B1 VL
# notes: Fab
# B9: Ab1 Fab variant H2 D59S (Fab, V domains shown)
# VH: B1 VH with I28A, D52S
# VL: B1 VL
# notes: Fab
# B10: Ab1 Fab variant H1 A30R (Fab, V domains shown)
# VH: B1 VH with I28R
# VL: B1 VL
# notes: Fab
# B11: Ab1 Fab variant H2 F58P (Fab, V domains shown)
# VH: B1 VH with I28A, F51P
# VL: B1 VL
# notes: Fab
# B12: Ab1 Fab variant H3 A107T (Fab, V domains shown)
# VH: B1 VH with I28A, A97T
# VL: B1 VL
# notes: Fab
# B13: Ab1 Fab variant H2 P60T (Fab, V domains shown)
# VH: B1 VH with I28A, P53T
# VL: B1 VL
# notes: Fab
# B14: Ab1 Fab variant H2 G67S (Fab, V domains shown)
# VH: B1 VH with I28A, G57S
# VL: B1 VL
# notes: Fab
# B15: Ab1 Fab variant H3 A107V (Fab, V domains shown)
# VH: B1 VH with I28A, A97V
# VL: B1 VL
# notes: Fab
# B16: Ab1 Fab variant H1 F31L (Fab, V domains shown)
# VH: B1 VH with I28A, F29L
# VL: B1 VL
# notes: Fab
# B17: Ab1 Fab variant H2 D65N (Fab, V domains shown)
# VH: B1 VH with I28A, D55N
# VL: B1 VL
# notes: Fab
# B18: Ab1 Fab variant H2 G67M (Fab, V domains shown)
# VH: B1 VH with I28A, G57M
# VL: B1 VL
# notes: Fab
# B19: Ab1 Fab variant H2 S68I (Fab, V domains shown)
# VH: B1 VH with I28A, S58I
# VL: B1 VL
# notes: Fab
# B20: Ab1 Fab variant H1 N40K (Fab, V domains shown)
# VH: B1 VH with I28A, N33K
# VL: B1 VL
# notes: Fab
# B21: Ab1 Fab variant H2 K73S (Fab, V domains shown)
# VH: B1 VH with I28A, K63S
# VL: B1 VL
# notes: Fab
# B22: Ab1 Fab variant H2 D65T (Fab, V domains shown)
# VH: B1 VH with I28A, D55T
# VL: B1 VL
# notes: Fab
# B23: Ab1 Fab variant H1 G27D (Fab, V domains shown)
# VH: B1 VH with G26D, I28A
# VL: B1 VL
# notes: Fab
# B24: Ab1 Fab variant H2 G67H (Fab, V domains shown)
# VH: B1 VH with I28A, G57H
# VL: B1 VL
# notes: Fab
# B25: Ab1 Fab variant H1 Y29K (Fab, V domains shown)
# VH: B1 VH with Y27K, I28A
# VL: B1 VL
# notes: Fab
# B26: Ab1 Fab variant H2 K75A (Fab, V domains shown)
# VH: B1 VH with I28A, K65A
# VL: B1 VL
# notes: Fab
# B27: Ab1 Fab variant H1 G27R (Fab, V domains shown)
# VH: B1 VH with G26R, I28A
# VL: B1 VL
# notes: Fab
# B28: Ab1 Fab variant H1 T32D (Fab, V domains shown)
# VH: B1 VH with I28A, T30D
# VL: B1 VL
# notes: Fab
# B29: Ab1 Fab variant H2 P60G (Fab, V domains shown)
# VH: B1 VH with I28A, P53G
# VL: B1 VL
# notes: Fab
# B30: Ab1 Fab variant H3 F136L (Fab, V domains shown)
# VH: B1 VH with I28A, F103L
# VL: B1 VL
# notes: Fab
# B31: Ab1 Fab variant H1 I41V (Fab, V domains shown)
# VH: B1 VH with I28A, I34V
# VL: B1 VL
# B32: Ab1 Fab variant H2 S57A (Fab, V domains shown)
# VH: B1 VH with I28A, S50A
# VL: B1 VL
# B33: Ab1 Fab variant H1 N40R (Fab, V domains shown)
# VH: B1 VH with I28A, N33R
# VL: B1 VL
# B34: Ab1 Fab variant L2 T69R (Fab, V domains shown)
# VH: B1 VH with I28A
# VL: B1 VL with T53R
# notes: Fab; also called SGSRLQS
# B35: Ab1 Fab variant L2 T69H (Fab, V domains shown)
# VH: B1 VH with I28A
# VL: B1 VL with T53H
# notes: Fab; also called SGSHLQS
# B36: Ab1 Fab variant L2 S68G (Fab, V domains shown)
# VH: B1 VH with I28A
# VL: B1 VL with S52G
# notes: Fab; also called SGGTLQS
# B37: Ab1 Fab variant L2 S68R (Fab, V domains shown)
# VH: B1 VH with I28A
# VL: B1 VL with S52R
# notes: Fab; also called SGRTLQS
# Biological target: T1, recombinant human ROR1 extracellular domain (human, UniProt Q01973 30-406)
# T1 construct: biotinylated for the filter lifts; also called huROR1-ECD; human ROR1-ECD
# Assay: capture filter lift
# Procedure: Subsequently, the filter was applied to the agar plates as described above. For detection of antigen binding, the filter was rinsed briefly in PBS, and transferred to biotinylated huROR1-ECD (ACROBiosystems, cat. #RO1-H522y) in 5% M-P.
# Filters were incubated with 2.3 nM biotinylated ROR1 diluted in 5% M-P for 2 h at 25° C. with constant agitation, and washed 5 times, 2 minutes each wash, with constant agitation in PBS-T. Alternatively, filters were washed more rapidly using a squirt bottle and sintered glass funnel for vacuum filtration. The filters were transferred to 10 mL of High Sensitivity Neutravidin, HRP conjugate (Thermo Scientific, cat. #31030) diluted 5000-fold in 1% BSA in PBS and incubated for 1 h at 25° C. The filters were then washed 5 times in PBS-T and were developed with 1-Step Ultra TMB-Blotting.
# All libraries were initially screened by capture lift to identify variants with improved binding. The capture lift assay, described in Example 1, enables the filter lift assay to discern variants that bind antigen more strongly based on the staining intensity. In order to determine the optimal concentration of antigen to use for screening, biotinylated huROR1-ECD was titrated on a capture lift of Ab1 Fab. Binding to Ab1 was clearly visible at antigen concentrations ≥23 nM and the signal was diminished at lower huROR1 concentrations. […] In addition, for more stringent screening, filters were probed with lower concentrations of antigen and/or development of the filter was terminated earlier, before the Ab1 staining was visible. […] In this example, approximately 250 library variants were plated. Twelve variants clearly bound huROR1 (FIG. 4, numbered).
# T1 sequence (Q01973 30-406 limits assumed): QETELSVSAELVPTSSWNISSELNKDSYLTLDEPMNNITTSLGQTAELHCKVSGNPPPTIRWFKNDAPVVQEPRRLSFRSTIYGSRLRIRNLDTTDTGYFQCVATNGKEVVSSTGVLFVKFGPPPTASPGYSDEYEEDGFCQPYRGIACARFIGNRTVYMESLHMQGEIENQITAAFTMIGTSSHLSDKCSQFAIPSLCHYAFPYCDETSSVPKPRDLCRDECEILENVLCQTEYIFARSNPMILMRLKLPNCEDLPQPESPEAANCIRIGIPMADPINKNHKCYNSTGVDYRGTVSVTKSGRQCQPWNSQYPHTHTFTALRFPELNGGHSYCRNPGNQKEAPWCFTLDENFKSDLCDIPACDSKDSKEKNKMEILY
row,binding result,Binder
1,binds,B1
2,binds,B2
3,binds,B3
4,binds,B4
5,binds,B5
6,binds,B6
7,binds,B7
8,binds,B8
9,binds,B9
10,binds,B10
11,binds,B11
12,binds,B12
13,binds,B13
14,binds,B14
15,binds,B15
16,binds,B16
17,binds,B17
18,binds,B18
19,binds,B19
20,binds,B20
21,binds,B21
22,binds,B22
23,binds,B23
24,binds,B24
25,binds,B25
26,binds,B26
27,binds,B27
28,binds,B28
29,binds,B29
30,binds,B30

# Biological target: T1, recombinant human ROR1 extracellular …
# Assay: ELISA, soluble Fab on coated huROR1-ECD
# Procedure: The previously described filter lift assay provides a visual, qualitative assessment of antigen binding (Example 1). In order to assess the ROR1 binding activity of Ab1 Fab in a more quantitative fashion, an ELISA assay was developed. A 96-well Costar-3366 plate was coated with 50 μL/well of 1 μg/mL human ROR1-ECD (ACROBiosystems, cat. #RO1-H522y) in PBS overnight at 4° C. The plate was rinsed once with PBS-T and blocked with 100 μL/well of 5% M-P for 1 h at 25° C. Fab samples were serially diluted 3-fold using 5% M-P and 50 μL/well was incubated for 1 h at 25° C. The plate was washed three times with PBS-T and 50 μL/well anti-human kappa, and HRP conjugate (Southern Biotech, cat. #2060-05) diluted 10,000-fold in 5% M-P was added for 1 h at 25° C. In certain assays (extended wash format), the plate was placed in large volumes (up to 1 L) of PBS-T and incubated, with mixing, for 2-5 h prior to the addition of anti-human kappa, HRP conjugate. The plate was washed three times with PBS-T, and developed with 50 μL/well 1-Step Ultra TMB-ELISA (Thermo Scientific, cat. #34028). The reaction was terminated by the addition of 2 N H2504 and the A450 was determined using a Spectramax plate reader.
row,Kd [nM],Binder
1,3.5,B31
2,3.6,B32
3,43,B33
4,2.1,B34
5,1.5,B35
6,1.6,B36
7,11,B37
